{"source": "patent US11384130B2", "about": "“Agent for promoting angiogenesis and methods and uses thereof” (Vasomune Therapeutics Inc., priority 2017, dated 2022)", "assay_type_in_all_cases": "cell-based", "details_in_all_cases": "positive control", "key": {"[1]": {"tested_on": "Tie2 receptor", "assay": "Tie2 phosphorylation in primary cynomolgus monkey glomerular endothelial cells", "method": "Primary cynomolgus monkey glomerular endothelial cells (Cell Biologics) were cultured according to details provided above for HMVEC^tert. Tie2 activation studies performed on primary cynomolgus monkey glomerular endothelial cells were performed according to approaches detailed above for the rat primary glomerular endothelial cell studies."}, "[2]": {"target": "T1, Tie2 receptor (Canis lupus familiaris, UniProt A0A8I3P3D4)", "T1 construct": "primary cultured endothelial cells derived from canine aorta; host or cells: primary canine aortic endothelial cells", "T1 sequence (A0A8I3P3D4 entry or part of it)": "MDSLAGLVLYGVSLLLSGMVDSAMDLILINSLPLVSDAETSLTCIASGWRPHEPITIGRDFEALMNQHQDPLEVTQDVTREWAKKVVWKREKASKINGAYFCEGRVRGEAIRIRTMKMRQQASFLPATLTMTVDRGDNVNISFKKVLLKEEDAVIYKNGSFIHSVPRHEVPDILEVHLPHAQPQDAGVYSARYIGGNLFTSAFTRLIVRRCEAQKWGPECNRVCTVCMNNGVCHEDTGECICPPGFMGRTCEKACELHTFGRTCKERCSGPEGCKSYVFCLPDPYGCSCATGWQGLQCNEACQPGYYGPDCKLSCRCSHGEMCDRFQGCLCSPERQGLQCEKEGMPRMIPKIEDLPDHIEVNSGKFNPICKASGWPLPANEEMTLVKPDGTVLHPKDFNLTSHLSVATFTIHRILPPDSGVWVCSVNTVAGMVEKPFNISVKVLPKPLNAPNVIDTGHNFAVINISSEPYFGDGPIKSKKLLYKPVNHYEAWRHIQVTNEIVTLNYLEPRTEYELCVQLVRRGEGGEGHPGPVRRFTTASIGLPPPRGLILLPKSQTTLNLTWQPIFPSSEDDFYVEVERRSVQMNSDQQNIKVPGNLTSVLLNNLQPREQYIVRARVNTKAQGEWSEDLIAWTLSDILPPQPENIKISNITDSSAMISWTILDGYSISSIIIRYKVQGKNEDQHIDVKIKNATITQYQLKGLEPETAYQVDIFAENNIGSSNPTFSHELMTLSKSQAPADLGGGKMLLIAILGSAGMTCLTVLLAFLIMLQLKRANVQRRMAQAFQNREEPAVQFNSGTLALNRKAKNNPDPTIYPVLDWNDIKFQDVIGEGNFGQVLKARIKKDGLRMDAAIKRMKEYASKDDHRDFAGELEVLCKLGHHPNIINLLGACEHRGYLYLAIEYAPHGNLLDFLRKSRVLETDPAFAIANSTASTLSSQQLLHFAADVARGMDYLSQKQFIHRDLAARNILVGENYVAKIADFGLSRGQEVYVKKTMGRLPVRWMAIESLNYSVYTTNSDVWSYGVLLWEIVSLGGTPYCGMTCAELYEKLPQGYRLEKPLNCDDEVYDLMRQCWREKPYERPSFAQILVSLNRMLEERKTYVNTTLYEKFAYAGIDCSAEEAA", "assay": "Tie2 phosphorylation in primary canine aortic endothelial cells", "method": "Canine primary aortic endothelial cells (Cell Biologics) were grown in Complete canine endothelial cell medium/w kit (Cell Biologics) in 20% O2, 5% CO2 and 37° C. humidified chamber and split 1:3 once reaching 80-90% confluency. Tie2 activation studies performed on primary cynomolgus monkey glomerular endothelial cells were performed according to approaches detailed above for the rat primary glomerular endothelial cell studies."}, "[3]": {"target": "T2, Tie2 receptor (Rattus norvegicus, UniProt A0A8I5ZW61)", "T2 construct": "host or cells: primary rat glomerular endothelial cells", "T2 sequence (A0A8I5ZW61 20-1121)": "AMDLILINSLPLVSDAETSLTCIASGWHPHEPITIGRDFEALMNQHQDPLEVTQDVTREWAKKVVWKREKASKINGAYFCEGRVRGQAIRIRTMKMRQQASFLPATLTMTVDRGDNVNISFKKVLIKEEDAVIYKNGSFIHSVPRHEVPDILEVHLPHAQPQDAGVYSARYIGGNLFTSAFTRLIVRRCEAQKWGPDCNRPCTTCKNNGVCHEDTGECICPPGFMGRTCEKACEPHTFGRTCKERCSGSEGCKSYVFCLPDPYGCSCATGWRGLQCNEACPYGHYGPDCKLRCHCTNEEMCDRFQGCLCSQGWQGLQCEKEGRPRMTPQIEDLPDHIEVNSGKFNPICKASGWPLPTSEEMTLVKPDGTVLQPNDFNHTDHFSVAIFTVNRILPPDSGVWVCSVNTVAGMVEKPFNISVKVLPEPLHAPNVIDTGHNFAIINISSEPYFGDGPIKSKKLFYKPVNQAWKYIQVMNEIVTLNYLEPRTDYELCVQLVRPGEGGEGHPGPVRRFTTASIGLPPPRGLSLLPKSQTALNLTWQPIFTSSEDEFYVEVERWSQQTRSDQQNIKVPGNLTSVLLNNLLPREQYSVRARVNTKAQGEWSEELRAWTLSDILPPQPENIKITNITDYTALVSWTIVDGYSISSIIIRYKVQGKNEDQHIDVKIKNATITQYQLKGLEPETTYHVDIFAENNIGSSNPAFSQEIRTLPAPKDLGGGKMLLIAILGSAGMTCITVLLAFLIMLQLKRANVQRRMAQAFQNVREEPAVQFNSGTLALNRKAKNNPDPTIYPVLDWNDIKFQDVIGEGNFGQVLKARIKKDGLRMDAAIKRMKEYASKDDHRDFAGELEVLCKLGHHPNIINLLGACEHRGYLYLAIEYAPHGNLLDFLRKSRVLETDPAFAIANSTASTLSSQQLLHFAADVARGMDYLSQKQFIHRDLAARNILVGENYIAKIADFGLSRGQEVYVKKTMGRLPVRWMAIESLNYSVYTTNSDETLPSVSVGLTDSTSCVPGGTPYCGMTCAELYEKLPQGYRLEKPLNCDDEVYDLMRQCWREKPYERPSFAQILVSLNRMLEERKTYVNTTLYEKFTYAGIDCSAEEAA", "assay": "Tie2 phosphorylation in primary rat glomerular endothelial cells", "method": "Rat primary glomerular endothelial cells (Cell Biologics) were grown in Complete rat endothelial cell medium/w kit (Cell Biologics) in 20% O2, 5% CO2 and 37° C. humidified chamber and split 1:3 once reaching 80-90% confluency. To examine the activation of Tie2 by MPA-Br in rat kidney glomerular endothelial cells, 95-100% confluent cells were stimulated with indicated concentrations of the test agent in serum-containing media for 15 minutes. Human Ang-1 (R&D Systems) was used as positive control. Cell lysates were collected using lysis buffer IC12 (detailed above) recommended in Human phospho-Tie-2 ELISA kit (R&D Systems), tyrosine-phosphorylated Tie2 and total Tie2 were measured using ELISA (Human phospho-Tie2 and total-Tie2 ELISA kits, R&D Systems) with substitution of capture antibody validated for rat Tie2. Mouse anti-Tie2 antibody (BD Pharmingen™) and rabbit TEK polyclonal antibody (MyBioSource) were used as capture antibody in pTie2 and total Tie2 ELISA, respectively. The level of Tie2 phosphorylation for all treatment groups was then normalized to that of the no treatment group (NT, complete rat endothelial cell medium) in each experiment."}}}
{"molecule": "human recombinant Ang1: human recombinant angiopoietin 1 (R&D Systems), positive control for Tie2 and MAPK activation (protein, UniProt Q15389 16-498, looked up) Angiopoietin-1: HIGCSNQRRSPENSGRRYNRIQHGQCAYTFILPEHDGNCRESTTDQYNTNALQRDAPHVEPDFSSQKLQHLEHVMENYTQWLQKLENYIVENMKSEMAQIQQNAVQNHTATMLEIGTSLLSQTAEQTRKLTDVETQVLNQTSRLEIQLLENSLSTYKLEKQLLQQTNEILKIHEKNSLLEHKILEMEGKHKEELDTLKEEKENLQGLVTRQTYIIQELEKQLNRATTNNSVLQKQQLELMDTVHNLVNLCTKEGVLLKGGKREEEKPFRDCADVYQAGFNKSGIYTIYINNMPEPKKVFCNMDVNGGGWTVIQHREDGSLDFQRGWKEYKMGFGNPSGEYWLGNEFIFAITSQRQYMLRIELMDWEGNRAYSQYDRFHIGNEKQNYRLYLKGHTGTAGKQSSLILHGADFSTKDADNDNCMCKCALMLTGGWWFDACGPSNLNGMFYTAGQNHGKLNGIKWHYFKGPSYSLRSTTMMIRPLDF", "values": [{"measurement": "Tie2 phosphorylation compared to no treatment", "setting": "[1]", "value": "significant increase in baseline Tie2 phosphorylation"}, {"measurement": "Tie2 phosphorylation compared to no treatment", "setting": "[2]", "value": "significant increase in baseline Tie2 phosphorylation"}, {"measurement": "Tie2 phosphorylation compared to no treatment", "setting": "[3]", "value": "significant increase in baseline Tie2 phosphorylation"}]}
